# Patent publication US20250270304A1 (PHENOMIC AI, published 2025)
# T1: Inhibin A (Homo sapiens (Human), UniProt P05111 233-366; P08476 311-426)
# T1 sequence 1: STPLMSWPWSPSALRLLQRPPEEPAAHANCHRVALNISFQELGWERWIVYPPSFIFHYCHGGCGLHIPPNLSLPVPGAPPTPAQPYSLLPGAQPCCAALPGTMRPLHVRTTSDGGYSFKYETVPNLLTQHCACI
# T1 sequence 2: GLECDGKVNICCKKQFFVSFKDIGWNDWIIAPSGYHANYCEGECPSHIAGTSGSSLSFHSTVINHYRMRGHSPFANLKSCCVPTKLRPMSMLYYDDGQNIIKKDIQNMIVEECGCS
# T2: Activin B (Homo sapiens (Human), UniProt P09529 293-407)
# T2 construct: also called Mature Activin B; mature Activin B
# T2 sequence: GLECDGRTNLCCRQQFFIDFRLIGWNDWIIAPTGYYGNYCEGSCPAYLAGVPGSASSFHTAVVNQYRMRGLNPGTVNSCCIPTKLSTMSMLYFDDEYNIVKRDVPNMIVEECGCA
# T3: Latent Activin A (human, UniProt P08476 21-426, limits assumed)
# T3 construct: also called INHBA latent
# T3 sequence: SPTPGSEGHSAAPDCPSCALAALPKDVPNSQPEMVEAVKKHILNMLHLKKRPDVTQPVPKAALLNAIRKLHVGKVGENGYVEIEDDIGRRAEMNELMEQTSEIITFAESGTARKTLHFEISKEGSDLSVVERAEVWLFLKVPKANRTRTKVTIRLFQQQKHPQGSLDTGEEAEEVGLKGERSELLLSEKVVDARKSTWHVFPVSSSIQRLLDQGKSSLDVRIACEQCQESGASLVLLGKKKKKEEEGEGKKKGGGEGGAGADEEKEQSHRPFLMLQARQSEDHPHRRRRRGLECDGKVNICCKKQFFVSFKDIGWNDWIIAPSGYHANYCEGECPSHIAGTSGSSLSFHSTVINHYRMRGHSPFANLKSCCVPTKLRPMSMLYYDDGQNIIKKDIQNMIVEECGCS
# T4: Mature Activin A (human, UniProt P08476 311-426)
# T4 construct: also called active Activin A; INHBA mature
# T4 sequence: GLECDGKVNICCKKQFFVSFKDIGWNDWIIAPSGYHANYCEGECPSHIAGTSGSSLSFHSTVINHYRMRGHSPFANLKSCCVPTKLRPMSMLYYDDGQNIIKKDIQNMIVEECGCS
# Legend:
# Assay in all cases: ELISA, coated antigen, OD450
# Inhibin A [1] = target: T1, Inhibin A
# Procedure: (§1) Antibodies were re-expressed in 40 mL cultures of Expi293 cells and purified using protein G magnetic sepharose beads (Cytiva, Marlborough, MA) to provide larger quantities for secondary screening. Secondary screening included dose responses in both functional assays described above (SMAD nuclear localization and fibroblast activations assays) as well as in binding assays to the same antigens listed in Table 3. Plates were coated with 25 μL of 3 μg/mL antigen in 384-well Maxisorp plates overnight at 4° C. with agitation. The next day, the samples in the plates were blocked with 70 μL blocking buffer (PBS+1% BSA+0.1% Tween-20) for 2 hours at room temperature. Plates were then washed three times with 100 μL of wash buffer (PBS+0.1% Tween-20). Primary antibodies in Expi293 expression medium were diluted 1:3 in blocking buffer, 25 μL added per well, and the plates were incubated for an hour at room temperature with agitation. Plates were then washed three times and 25 μL of secondary antibody (goat anti-Human IgG, HRP conjugated; Jackson Immunoresearch) diluted 1:5000 in blocking buffer was added for 30 minutes at room temperature. The wells in the plates were washed six times with wash buffer and TMB substrate was added followed by 1 M H3PO4.
# Activin B = target: T2, Activin B
# Procedure: as §1
# Latent Activin A = target: T3, Latent Activin A
# Procedure: as §1
# Mature Activin A = target: T4, Mature Activin A
# Procedure: as §1
# Inhibin A [2] = target: T1, Inhibin A; remark: listed apart in the source
Binder,fold-change of OD 450 over negative control (BSA) (Inhibin A [1]),fold-change of OD 450 over negative control (BSA) (Activin B),fold-change of OD 450 over negative control (BSA) (Latent Activin A),fold-change of OD 450 over negative control (BSA) (Mature Activin A),binding result (Inhibin A [2])
"AB372 (antibody, IgG1, V domains shown) VH: QVTLRESGPALVKPTQTLTLTCTVSGFSLSTSGATVNWIRQPPGKALEWIGYITSSGRTVYNSALKSRLTISKDTSKNQVVLTMTNMDPVDTATYYCTTTKIVGATLRDYWGQGTLVTVSS VL: DIVMTQSPDSLAVSLGERATINCKSSQSVLDTSTNRNYLAWYQQKPGQPPKLLIYGASIRAGGVPDRFSGSGSGTDFTLTISSLQAEDVAVYYCQQSYSHPPTFGGGTKVEIK",0.43 fold,0.43 fold,5.64 fold,7.16 fold,–
"AB363 (antibody, IgG1, V domains shown) VH: QVTLRESGPALVKPTQTLTLTCTVSGFSLSTSGATVNWIRQPPGKALEWIGYITSSGRTVYNSALKSRLTISKDTSKNQVVLTMTNMDPVDTATYYCTTTKIVGATLRDYWGQGTLVTVSS VL: DIQMTQSPSSVSASVGDRVTITCRASQGISNDLAWYQQKPGKAPKLLIYDVSNRASGVPSRFSGSGSGTDFTLTISSLQPEDFANYYCQQYDNPPSFGGGTKVEIK",0.53 fold,0.63 fold,4.82 fold,7.63 fold,–
"AB357 (antibody, IgG1, V domains shown) VH: EVQLVQSGAEVKKPGASVKVSCKASGYTFPSHYISWVRQAPGQGLEWMGGMNPITGHTIYAQKLQGRGTMTTDPSTSTAYMELRSLRSDDTAVYYCARDMRYDILPGRSYYYGMDVWGQGTTVTVSS VL: ESALTQPASVSGSPGQSITISCTGTDIRGMSVSWYQQHPGKAPKLMIYEVNQRPSGVSNRFSGSKSGNTASLTISGLQAEDEADYYCAAWDASVAGYVFGGGTKLTVL",0.77 fold,2.44 fold,6.59 fold,6.99 fold,–
"AB338 (antibody, IgG1, V domains shown) VH: EVQLVESGGGLVQPGGSLRLSCAASGFTASRNYMSWVRQAPGKGLELVASISGSGDYTYYPDSVKGRFTISRDNAKNSLYLQMNSLRAEDTAVYYCARSPRGPRLLGYYYGMDVWGQGTTVTVSS VL: DIVMTQSPLSLPVTPGEPASISCRSSQSLLHSNEKNYLHWYLQKPGQSPQLLIYDASKRASGVPDRFSGSGSGTDFTLKISRVEAEDVGVYYCVQDLHTPFTFGGGTKVEIK",0.9 fold,0.68 fold,1.44 fold,1.94 fold,–
"AB432 (antibody, IgG1, V domains shown) VH: QVQLQESGPGLVKPSQTLSLTCTVSGVSLSNVRMGVNWIRQPPGKGLEWIGYVNPSGSTDYNPSLKSRVTMSVDTSKNQFSLKVNSVTAADTAVYYCARAGYPDVWGKGTLVTVSS VL: EIVMTQSPATLSLSPGERATLSCRASQSISSSQLAWYQQKPGQAPRLLIYGASTRATGIPARFSGSGSGTDFTLTISSLEPEDFAVYYCQQYNDRPRTFGGGTKVEIK",0.74 fold,1.72 fold,10.4 fold,8.86 fold,no binding (tested: 1.40-fold over BSA)
"AB433 (antibody, IgG1, V domains shown) VH: QVQLQESGPGLVKPSQTLSLTCTVSGFPLSTSRMGVNWIRQPPGKGLEWIGYINPSGATDYNPSLKSRVTMSVDTSKNQFSLKVNSVTAADTAVYYCARAGYPDVWGKGTTVTVSS VL: EIVMTQSPATLSLSPGERATLSCRASQSVRTSLAWYQQKPGQAPRLLIYDTSIRAAGIPARFSGSGSGTDFTLTISSLEPEDFAVYYCQQYGNWHFGGGTKVEIK",0.72 fold,2.5 fold,10.5 fold,9.41 fold,–
"AB352 (antibody, IgG1, V domains shown) VH: QVQLQESGPGLVKPSQTLSLTCTVSGFPLSTSRMGVNWIRQPPGKGLEWIGYINPSGATDYNPSLKSRVTMSVDTSKNQFSLKVNSVTAADTAVYYCARAGYPDVWGKGTTVTVSS VL: EIVMTQSPATLSLSPGERATLSCRASQSVSTHLAWYQQKPGQAPRLLIYDATNRATGIPARFSGSGSGTDFTLTISSLEPEDFAVYYCLQYTNYPWTFGGGTKVEIK",0.61 fold,2.03 fold,15.2 fold,16.2 fold,no binding (tested: 1.40-fold over BSA)
"AB449 (antibody, IgG1, V domains shown) VH: QVQLQESGPGLVKPSQTLSLTCTVSGLSLSNAKMGVNWIRQPPGKGLEWIGYVSTTGTTDYNPSLKSRVTMSVDTSKNQFSLKVNSVTAADTAVYYCARAGYPDVWGKGTTVTVSS VL: DIQMTQSPSSVSASVGDRVTITCRASQGISRDLAWYQQKPGKAPKLLIYAASTLVSGVPSRFSGSGSGTDFTLTISSLQPEDFANYYCQQYVSAPPYTFGGGTKVEIK",0.65 fold,0.76 fold,4.95 fold,6.63 fold,–
"AB346 (antibody, IgG1, V domains shown) VH: QVQLQESGPGLVKPSQTLSLTCTVSGFPLSTSRMGVNWIRQPPGKGLEWIGYINPSGATDYNPSLKSRVTMSVDTSKNQFSLKVNSVTAADTAVYYCARAGYPDVWGKGTTVTVSS VL: EIVMTQSPATLSLSPGERATLSCRASRSVSSDLAWYQQKPGQAPRLLIYDVSTRATGIPARFSGSGSGTDFTLTISSLEPEDFAVYYCQQYGSSLPPTFGGGTKVEIK",0.58 fold,2.46 fold,13.8 fold,14 fold,–
"AB465 (antibody, IgG1, V domains shown) VH: QVQLQESGPGLVKPSQTLSLTCTVSGASVSNARTGVNWIRQPPGKGLEWIGYINPSGRIDYNPSLKSRVTMSVDTSKNQFSLKVNSVTAADTAVYYCARAGYPDVWGKGTTVTVSS VL: EIVMTQSPATLSLSPGERATLSCRASQTVSSHLAWYQQKPGQAPRLLIYDVSHRASGIPARFSGSGSGTDFTLTISSLEPEDFAVYYCQQYFTLPTFGGGTKVEIK",0.46 fold,0.87 fold,5.82 fold,6.84 fold,–
"AB435 (antibody, IgG1, V domains shown) VH: QVQLQESGPGLVKPSQTLSLTCTVSGYSLTDARIGVNWIRQPPGKGLEWIGYINPSGRTDYNPSLKSRVTMSVDTSKNQFSLKVNSVTAADTAVYYCARAGYPDVWGKGTTVTVSS VL: EIVMTQSPATLSLSPGERATLSCRASQSIGTKLAWYQQKPGQAPRLLIYDASSRVPGIPARFSGSGSGTDFTLTISSLEPEDFAVYYCQQYGSSPPVYSFGGGTKVEIK",0.74 fold,0.84 fold,6.66 fold,8.09 fold,–
